Measurements as given in the supplement of paper PMC10724198.
± gives the standard deviation of the averaged measurements.

Test system: Saccharomyces cerevisiae
Experiment: protein stability index of tFT-peptide fusion (C-terminal peptide) (PSI (0-1 scale)); higher = more stable (slower turnover)
Conditions: temperature: 30 C
Protocol: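 MPS profiling in S. cerevisiae of the yeast C-terminome library: the last 12 aa of each annotated ORF are fused to the C-terminus of a sfGFP-mCherry timer, after a GGGS linker. Cells are FACS-sorted into 8 mCherry/sfGFP bins and deep-sequenced. PSI runs from 0 (unstable) to 1 (stable); wild type and das1Δ backgrounds, two technical replicates each.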

[1] = genetic background: das1 deletion

Sequence	protein stability index [1]	protein stability index (genetic background: wild type)
GDYSFNGRVTDF [SDH8 C-terminal 12 aa]	0.711 ± 0.015	0.697 ± 0.011
CGGKRNLQRNNF [YLR149C-A C-terminal 12 aa]	0.703 ± 0.017	0.6759 ± 0.0037
ATFSHPELTNIH [SDH6 C-terminal 12 aa]	0.716 ± 0.01	0.716 ± 0.024
ATRVSSRLRNKK [EAF7 C-terminal 12 aa]	0.7311 ± 0.0026	0.701 ± 0.025
FSGDMSFTVYQL [POA1 C-terminal 12 aa]	0.741 ± 0.01	0.699 ± 0.041
FAQDLMKCTYKI [NUP145 C-terminal 12 aa]	0.708 ± 0.0095	0.656 ± 0.018
DKPLYKRMFSTK [HXT6 C-terminal 12 aa]	0.694 ± 0.022	0.7134 ± 0.0047
KLLQIHKSKQQD [TAH11 C-terminal 12 aa]	0.69 ± 0.013	0.706 ± 0.012
SFNEVVKEVQAL [NHP2 C-terminal 12 aa]	0.687 ± 0.017	0.692 ± 0.019
HDDKPWYKAMLE [GAL2 C-terminal 12 aa]	0.7493 ± 0.0048	0.733 ± 0.053
RIEQNRPDDGVY [FMP16 C-terminal 12 aa]	0.682 ± 0.068	0.65 ± 0.017
RIYHVYGRFLIH [NCA2 C-terminal 12 aa]	0.671 ± 0.027	0.404 ± 0.027
NEALVKTTKQKL [LPX1 C-terminal 12 aa]	0.703 ± 0.013	0.704 ± 0.018
TAAQILKKQNRL [YDR541C C-terminal 12 aa]	0.6454 ± 0.0021	0.704 ± 0.063
RNNEHSHKKYNQ [YER090C-A C-terminal 12 aa]	0.711 ± 0.0081	0.729 ± 0.092
KKGETFGYDKWW [OPT1 C-terminal 12 aa]	0.725 ± 0.021	0.683 ± 0.032
HATTVIDGKIKV [YHI9 C-terminal 12 aa]	0.693 ± 0.0079	0.688 ± 0.039
ITFIASLMTLNK [SAC6 C-terminal 12 aa]	0.66916 ± 0.0005	0.679 ± 0.021
KRGEIYETGKFF [OLE1 C-terminal 12 aa]	0.707 ± 0.011	0.723 ± 0.011
LEDEDVVTILKK [RBG1 C-terminal 12 aa]	0.705 ± 0.021	0.707 ± 0.0083
SKEKARALGSNF [GTT1 C-terminal 12 aa]	0.712 ± 0.016	0.686 ± 0.013

Sequence	protein stability index [1]	protein stability index (genetic background: wild type)
KEQEESEKDKEN [BFR1 C-terminal 12 aa]	0.732 ± 0.015	0.69 ± 0.05
APEFLDWLDEEN [HEM2 C-terminal 12 aa]	0.738 ± 0.011	0.6793 ± 0.0033
VDNFISVLKQGQ [LOS1 C-terminal 12 aa]	0.7081 ± 0.0044	0.668 ± 0.0073
DLLNSVVVQRWA [SHP1 C-terminal 12 aa]	0.697 ± 0.012	0.702 ± 0.034
KKLNRKIASIFN [ZEO1 C-terminal 12 aa]	0.718 ± 0.011	0.6644 ± 0.0016
RKFHVVDTSLFA [MOG1 C-terminal 12 aa]	0.688 ± 0.01	0.688 ± 0.05
RTQGEGQGSMFR [TAF11 C-terminal 12 aa]	0.7233 ± 0.0027	0.6719 ± 0.0047
VFDENMYSKYSS [BRO1 C-terminal 12 aa]	0.712 ± 0.012	0.712 ± 0.032
HKKEVVSKGDDY [MAP2 C-terminal 12 aa]	0.6695 ± 0.0046	0.653 ± 0.026
RHELQALQAEIN [END3 C-terminal 12 aa]	0.715 ± 0.018	0.614 ± 0.018
NFLNLLSPLPSV [TOM7 C-terminal 12 aa]	0.72262 ± 0.00027	0.6951 ± 0.0031
KLRREDEIIVYA [REC8 C-terminal 12 aa]	0.6145 ± 0.0033	0.644 ± 0.0052
LPPGLNSKKNIK [EAP1 C-terminal 12 aa]	0.69532 ± 0.00062	0.658 ± 0.01
IKVDNIVHIRND [YFH7 C-terminal 12 aa]	0.6928 ± 0.0038	0.723 ± 0.039
GIVNFWSLEKAA [CIA1 C-terminal 12 aa]	0.716 ± 0.012	0.633 ± 0.011
RDVLDDGSNIMS [IAH1 C-terminal 12 aa]	0.6824 ± 0.0049	0.7 ± 0.0082
FFHRISHFLESA [YLR299C-A C-terminal 12 aa]	0.704 ± 0.018	0.695 ± 0.025
MMAVDTDVDMDA [YPL071C C-terminal 12 aa]	0.668 ± 0.012	0.673 ± 0.014
EDSKEYFEAANK [TSA1 C-terminal 12 aa]	0.71 ± 0.021	0.704 ± 0.0061
KKKKNASTCTIL [RSR1 C-terminal 12 aa]	0.7494 ± 0.0014	0.711 ± 0.03
NIIGLLSNDEEH [CBP2 C-terminal 12 aa]	0.6944 ± 0.0063	0.6869 ± 0.0018

Sequence	protein stability index [1]	protein stability index (genetic background: wild type)
SVFLLNITYLLD [YOR314W C-terminal 12 aa]	0.236 ± 0.0099	0.268 ± 0.018
ELTKALDLLNSI [VTA1 C-terminal 12 aa]	0.691 ± 0.015	0.694 ± 0.047
PEVIDTRKDNSN [COX11 C-terminal 12 aa]	0.687 ± 0.012	0.696 ± 0.022
IIWEKRNPEQKI [ERG11 C-terminal 12 aa]	0.702 ± 0.023	0.7138 ± 0.0069
TALNSGRSRDVK [YJL027C C-terminal 12 aa]	0.6821 ± 0.0027	0.678 ± 0.019
ETSITNDNESQQ [PPZ1 C-terminal 12 aa]	0.695 ± 0.0074	0.701 ± 0.04
IFQEAIDKTVEI [YML082W C-terminal 12 aa]	0.708 ± 0.0011	0.706 ± 0.029
KLAEHGAKKQKI [GCD10 C-terminal 12 aa]	0.7217 ± 0.0024	0.659 ± 0.016
NKREFIDSLRPH [AIM20 C-terminal 12 aa]	0.71 ± 0.013	0.6774 ± 0.0032
GYLIWSMGNRRR [YFL051C C-terminal 12 aa]	0.731 ± 0.018	0.71 ± 0.016
LLEGIIIKLFLY [YDL011C C-terminal 12 aa]	0.423 ± 0.0049	0.174 ± 0.0066
LLCRDSSREVGE [YBL113C C-terminal 12 aa]	0.702 ± 0.022	0.673 ± 0.014
EVTAKTSLVSPK [ROX1 C-terminal 12 aa]	0.7021 ± 0.004	0.676 ± 0.018
DEKLHSHNASPN [YNL198C C-terminal 12 aa]	0.6788 ± 0.0032	0.697 ± 0.014
NPEATTKPKPRL [PTC5 C-terminal 12 aa]	0.752 ± 0.0099	0.81 ± 0.049
ESPIDAEKNFAR [INA1 C-terminal 12 aa]	0.693 ± 0.0098	0.6821 ± 0.0024
SIFIASLLLAIV [FLO10 C-terminal 12 aa]	0.226 ± 0.0053	0.237 ± 0.0032
LLGVGIAFYQDR [YJR112W-A C-terminal 12 aa]	0.706 ± 0.033	0.678 ± 0.018
EVDELPEGYDRS [TAH1 C-terminal 12 aa]	0.6846 ± 0.0037	0.6764 ± 0.002
ACILMAISQFNS [KSH1 C-terminal 12 aa]	0.619 ± 0.013	0.6333 ± 0.0061
TPKYVESDEDDQ [TOF2 C-terminal 12 aa]	0.654 ± 0.041	0.7196 ± 0.0037

Sequence	protein stability index [1]	protein stability index (genetic background: wild type)
IRLFRSARRWVG [ADE6 C-terminal 12 aa]	0.7017 ± 0.0011	0.66 ± 0.0083
DPTTNGSIIKNE [IXR1 C-terminal 12 aa]	0.6787 ± 0.0023	0.7014 ± 0.0049
QYMTSGYASNWN [YAR061W C-terminal 12 aa]	0.715 ± 0.11	0.754 ± 0.096
HGRESANGISKQ [YLR374C C-terminal 12 aa]	0.679 ± 0.015	0.65531 ± 0.00026
RGENGQFWIGTK [BNI5 C-terminal 12 aa]	0.744 ± 0.027	0.702 ± 0.03
SVTFFIQDILCL [YPL073C C-terminal 12 aa]	0.389 ± 0.019	0.407 ± 0.015
KDEINYLNSKLK [SPA2 C-terminal 12 aa]	0.692 ± 0.07	0.706 ± 0.083
EEWYTSNHDSLA [PRP18 C-terminal 12 aa]	0.723 ± 0.013	0.698 ± 0.014
NTFVLNMSRFII [YDL068W C-terminal 12 aa]	0.6739 ± 0.003	0.365 ± 0.079
TDGLNVWKTISV [RRB1 C-terminal 12 aa]	0.661 ± 0.023	0.6468 ± 0.0058
FGICAIHWGIKV [COQ5 C-terminal 12 aa]	0.385 ± 0.02	0.411 ± 0.013
LIGGVGLSIWKK [RTT10 C-terminal 12 aa]	0.7069 ± 0.0038	0.668 ± 0.032
RAVTNRSSCSRR [YCR038W-A C-terminal 12 aa]	0.697 ± 0.011	0.689 ± 0.0074
PEGEAPEAFSMK [SEC14 C-terminal 12 aa]	0.7068 ± 0.0023	0.684 ± 0.036
EIIRVGPQESII [MRP49 C-terminal 12 aa]	0.723 ± 0.019	0.749 ± 0.034
PEGGDGPKYTLT [CIR2 C-terminal 12 aa]	0.688 ± 0.018	0.721 ± 0.016
AYRTYDISLTEN [DRN1 C-terminal 12 aa]	0.694 ± 0.035	0.656 ± 0.012
ARLDKSLTFEDQ [RIM20 C-terminal 12 aa]	0.6983 ± 0.0055	0.699 ± 0.038
DKYPFLLYEVVR [YHR022C-A C-terminal 12 aa]	0.5289 ± 0.0027	0.544 ± 0.027
